B1: library; numbered along this chain (parent)
chain: MAAAAAAAAEQQSSNGPVKKSMREKAVERRSVNKEHNSNFKAGYIPIDEDRLHKTGLRGRKGNLAICVIILLFILAVINLIITLVIWAVIRIGPNGCDSMEFHESGLLRFKQVSDMGVIHPLYKSTVGGRRNENLVITGNNQPIVFQQGTTKLSVENNKTSITSDIGMQFFDPRTQNILFSTDYETHEFHLPSGVKSLNVQKASTERITSNATSDLNIKVDGRAIVRGNEGVFIMGKTIEFHMGGNMELKAENSIILNGSVMVSTTRLPSSSSGDQLGSGDWVRYKLCMCADGTLFKVQVTSQNMGCQISDNPCGNTH

The data set covers variants of B1. The data set is described as follows: SGCB cell-surface expression functional score (HA stain, bin4 vs bin1, normalised to synonymous) (log10 ratio); higher = more cell-surface SGCB (functional). The method in brief: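 Using lentivirus at MOI <0.1, HA-tagged, YFP-fused human beta-sarcoglycan codon-saturation libraries were put into HEK293 cells with stable alpha-, gamma- and delta-sarcoglycan expression, in duplicate transductions. YFP-positive cells were collected by sorting 72 hours later, grown 5–7 days, stained on ice with Alexa Fluor 647 anti-HA, fixed, sorted into four 5% intensity bins and amplicon-sequenced. The functional score takes the median, across codons and transductions, of the log ratio of highest-bin to lowest-bin variant frequency. Within each section, synonymous variants were scaled to mean 0, SD 0.5.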
For the variant MAAAAAAAAEQQSSNGPVKKSMREKAVERRSVNKEHNSNFKAGYIPIDEDRLHKTGLRGRKGNLAICVIILLFILAVINLIITLVIWAVIRIGPNGCDSMEFHESGLLRFKQVSDMGVIHPLYKSTVGGRRNENLVITGNNQPIVFQQGTTKLSVENNKTSITSDIGMQFFDPRTQNILFSTDYETHEFNLPSGVKSLNVQKASTERITSNATSDLNIKVDGRAIVRGNEGVFIMGKTIEFHMGGNMELKAENSIILNGSVMVSTTRLPSSSSGDQLGSGDWVRYKLCMCADGTLFKVQVTSQNMGCQISDNPCGNTH [H190N], the “SGCB cell-surface expression functional score (log10)” value is 0.89. With MAAAAAAAAEQQSSNGPVKKSMREKAVERRSVNKEHNSNFKAGYIPIDEDRLHKTGLRGRKGNLAICVIILLFILAVINLIITLVIWAVIRIGPNGCDSMEFHESGLLRFKQVSDMGVIHPLYKSTVGGRRNENLVITGNNQPIVFQQGTTKLSVENNKTSITSDIGMQFFDPRTQNILFSTDYETHEFSLPSGVKSLNVQKASTERITSNATSDLNIKVDGRAIVRGNEGVFIMGKTIEFHMGGNMELKAENSIILNGSVMVSTTRLPSSSSGDQLGSGDWVRYKLCMCADGTLFKVQVTSQNMGCQISDNPCGNTH [H190S] the figure was 0.28; with MAAAAAAAAEQQSSNGPVKKSMREKAVERRSVNKEHNSNFKAGYIPIDEDRLHKTGLRGRKGNLAICVIILLFILAVINLIITLVIWAVIRIGPNGCDSMEFHESGLLRFKQVSDMGVIHPLYKSTVGGRRNENLVITGNNQPIVFQQGTTKLSVENNKTSITSDIGMQFFDPRTQNILFSTDYETHEFPLPSGVKSLNVQKASTERITSNATSDLNIKVDGRAIVRGNEGVFIMGKTIEFHMGGNMELKAENSIILNGSVMVSTTRLPSSSSGDQLGSGDWVRYKLCMCADGTLFKVQVTSQNMGCQISDNPCGNTH [H190P], 0.42. For the variant MAAAAAAAAEQQSSNGPVKKSMREKAVERRSVNKEHNSNFKAGYIPIDEDRLHKTGLRGRKGNLAICVIILLFILAVINLIITLVIWAVIRIGPNGCDSMEFHESGLLRFKQVSDMGVIHPLYKSTVGGRRNENLVITGNNQPIVFQQGTTKLSVENNKTSITSDIGMQFFDPRTQNILFSTDYETHEFLLPSGVKSLNVQKASTERITSNATSDLNIKVDGRAIVRGNEGVFIMGKTIEFHMGGNMELKAENSIILNGSVMVSTTRLPSSSSGDQLGSGDWVRYKLCMCADGTLFKVQVTSQNMGCQISDNPCGNTH [H190L], the “SGCB cell-surface expression functional score (log10)” value was -0.13. MAAAAAAAAEQQSSNGPVKKSMREKAVERRSVNKEHNSNFKAGYIPIDEDRLHKTGLRGRKGNLAICVIILLFILAVINLIITLVIWAVIRIGPNGCDSMEFHESGLLRFKQVSDMGVIHPLYKSTVGGRRNENLVITGNNQPIVFQQGTTKLSVENNKTSITSDIGMQFFDPRTQNILFSTDYETHEFVLPSGVKSLNVQKASTERITSNATSDLNIKVDGRAIVRGNEGVFIMGKTIEFHMGGNMELKAENSIILNGSVMVSTTRLPSSSSGDQLGSGDWVRYKLCMCADGTLFKVQVTSQNMGCQISDNPCGNTH [H190V]: the “SGCB cell-surface expression functional score (log10)” value is -0.28.

Turning to MAAAAAAAAEQQSSNGPVKKSMREKAVERRSVNKEHNSNFKAGYIPIDEDRLHKTGLRGRKGNLAICVIILLFILAVINLIITLVIWAVIRIGPNGCDSMEFHESGLLRFKQVSDMGVIHPLYKSTVGGRRNENLVITGNNQPIVFQQGTTKLSVENNKTSITSDIGMQFFDPRTQNILFSTDYETHEFMLPSGVKSLNVQKASTERITSNATSDLNIKVDGRAIVRGNEGVFIMGKTIEFHMGGNMELKAENSIILNGSVMVSTTRLPSSSSGDQLGSGDWVRYKLCMCADGTLFKVQVTSQNMGCQISDNPCGNTH [H190M], the “SGCB cell-surface expression functional score (log10)” value is -0.84.

As for MAAAAAAAAEQQSSNGPVKKSMREKAVERRSVNKEHNSNFKAGYIPIDEDRLHKTGLRGRKGNLAICVIILLFILAVINLIITLVIWAVIRIGPNGCDSMEFHESGLLRFKQVSDMGVIHPLYKSTVGGRRNENLVITGNNQPIVFQQGTTKLSVENNKTSITSDIGMQFFDPRTQNILFSTDYETHEFQLPSGVKSLNVQKASTERITSNATSDLNIKVDGRAIVRGNEGVFIMGKTIEFHMGGNMELKAENSIILNGSVMVSTTRLPSSSSGDQLGSGDWVRYKLCMCADGTLFKVQVTSQNMGCQISDNPCGNTH [H190Q], the “SGCB cell-surface expression functional score (log10)” value is 0.16. Consider MAAAAAAAAEQQSSNGPVKKSMREKAVERRSVNKEHNSNFKAGYIPIDEDRLHKTGLRGRKGNLAICVIILLFILAVINLIITLVIWAVIRIGPNGCDSMEFHESGLLRFKQVSDMGVIHPLYKSTVGGRRNENLVITGNNQPIVFQQGTTKLSVENNKTSITSDIGMQFFDPRTQNILFSTDYETHEFWLPSGVKSLNVQKASTERITSNATSDLNIKVDGRAIVRGNEGVFIMGKTIEFHMGGNMELKAENSIILNGSVMVSTTRLPSSSSGDQLGSGDWVRYKLCMCADGTLFKVQVTSQNMGCQISDNPCGNTH [H190W], for which the “SGCB cell-surface expression functional score (log10)” value was -0.79.

With MAAAAAAAAEQQSSNGPVKKSMREKAVERRSVNKEHNSNFKAGYIPIDEDRLHKTGLRGRKGNLAICVIILLFILAVINLIITLVIWAVIRIGPNGCDSMEFHESGLLRFKQVSDMGVIHPLYKSTVGGRRNENLVITGNNQPIVFQQGTTKLSVENNKTSITSDIGMQFFDPRTQNILFSTDYETHEFTLPSGVKSLNVQKASTERITSNATSDLNIKVDGRAIVRGNEGVFIMGKTIEFHMGGNMELKAENSIILNGSVMVSTTRLPSSSSGDQLGSGDWVRYKLCMCADGTLFKVQVTSQNMGCQISDNPCGNTH [H190T], the “SGCB cell-surface expression functional score (log10)” value was 0.55.

Consider MAAAAAAAAEQQSSNGPVKKSMREKAVERRSVNKEHNSNFKAGYIPIDEDRLHKTGLRGRKGNLAICVIILLFILAVINLIITLVIWAVIRIGPNGCDSMEFHESGLLRFKQVSDMGVIHPLYKSTVGGRRNENLVITGNNQPIVFQQGTTKLSVENNKTSITSDIGMQFFDPRTQNILFSTDYETHEFYLPSGVKSLNVQKASTERITSNATSDLNIKVDGRAIVRGNEGVFIMGKTIEFHMGGNMELKAENSIILNGSVMVSTTRLPSSSSGDQLGSGDWVRYKLCMCADGTLFKVQVTSQNMGCQISDNPCGNTH [H190Y], for which the “SGCB cell-surface expression functional score (log10)” value stood at 0.55.

For the origin of these results see the supplement of paper PMC10266784.
